Experimental data published in paper doi:10.1101/2021.07.31.454588.

Target: mCherry-LacRnls-IE1 1–540 (human herpesvirus 6B (HHV-6B))
Assay: LacO/LacR tethering assay

## NBS1 (nibrin, NBN), endogenous (from UniProt O60934 1-754) (natural protein)
  percent of mCherry-LacRnls fusion foci colocalized with NBS1 at the LacO array: 81%
